Measured values reported in patent publication US8349801B2, “Peptide ligands for G-protein coupled receptors” (priority 2006, dated 2013).
One block for each substance: values may come before it. No end group written: not given here.

Tests used:
FPRL1 = biological target: T1, FPRL1 (Homo sapiens, UniProt P25090); experiment: Calcium flux in CHO-K1 cells co-transfected with FPRL1 and Gα16; type: cell-based; parameters: expressed in transfected cells; host or cells: CHO-K1 (ATCC-CCL-61), transient co-transfection; conditions: for ability to induce calcium flux, P33-derived peptides: 0.1, 1, 10, 100, 1000, 10000 nM; for calcium flux, P58 and derivatives: dose response
T1 sequence (P25090 1-351): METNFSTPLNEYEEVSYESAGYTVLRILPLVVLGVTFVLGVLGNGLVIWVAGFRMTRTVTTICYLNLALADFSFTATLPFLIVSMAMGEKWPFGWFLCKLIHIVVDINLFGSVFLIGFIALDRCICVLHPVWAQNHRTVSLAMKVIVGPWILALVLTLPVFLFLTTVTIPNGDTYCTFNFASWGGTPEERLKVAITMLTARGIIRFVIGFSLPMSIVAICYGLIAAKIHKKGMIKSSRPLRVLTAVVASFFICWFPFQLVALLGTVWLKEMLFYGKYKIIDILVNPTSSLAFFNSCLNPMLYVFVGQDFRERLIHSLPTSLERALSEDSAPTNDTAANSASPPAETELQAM
Protocol: (§1) The assay was carried out in CHO cells were transiently transfected with the GPCR of choice, by utilizing the promiscuous Gα16 to divert signaling to the Gq pathway, thus enabling readout of GPCR activation by testing for Calcium flux as described by Liu et al 2003 (Biomol Screen 8, 39-49).
(§2) All the peptides thus obtained were tested for their ability to change calcium flux in CHO—K1 cells (ATCC-CCL-61) transiently co-transfected with an expression vector containing the GPCR of choice and expression vector containing the Gα16 encoding cDNA. Expression constructs containing cDNA clones for MrgX1, MrgX2, Mas or FPRL1 were commercially obtained in one of the following expression vectors: pcDNA3.1, pCMV6, or MO2.
(§3) Transient transfections were performed using CHO—K1 cells as host cells. Cells (12 million) were plated into T75 flasks on the day preceding transfection. Cells were transfected with the appropriate GPCR expression vector and with a vector expressing Gα16 using a lipid-based reagent, MTI, according to the manufacturer's recommendation. Cells were transfected for 5 hours, then re-plated into 96-well dishes (60,000 cells per well) and grown overnight.
(§4) On the day of the experiment, cells were loaded with Fluo4-NW (Invitrogen) according to the manufacturer's recommendation. Plates were loaded into a FlexStation™ (Molecular Devices) plate reader and fluorescence was monitored. Seventeen seconds following initiation of reading, cells were stimulated with the indicated agonist/compound at final concentration of 1 μM. Each 96 well plate contained cells transfected with one GPCR expression vector and each of the examined peptides was tested in triplicate.
(§5) We defined a hit as a peptide which elicited a clear and distinct increase in intracellular calcium that is clearly visible and statistically significant upon examination of the calcium trace for at least two repeats. The criterion for statistical significance was a p-value lower than 0.001 in a t-test comparing the levels of calcium before and after peptide addition.
(§6) Based on dose response experiments, EC50 best fit values were calculated by non-linear regression of sigmoidal dose-response curves, using Prism version 4 (GraphPad Software Inc., San Diego, Calif.). The formulae for the sigmoidal dose-response curves was defined as Y=Bottom+(Top−Bottom)/(1+10^ (LogEC50−X)*HillSlope))
The ability of Peptides to change calcium flux was examined in CHO—K1 cells co-transfected with FPRL1 and Gal 6.

Mas receptor = biological target: T2, Mas receptor (Homo sapiens, UniProt P04201); experiment: Calcium flux in CHO-K1 cells co-transfected with Mas receptor and Gα16; type: cell-based; conditions: for ability to induce calcium flux, P33 monomer, dimer and derivatives compared: 0.1, 1, 10, 100, 1000 and 10000 nM; for ability to induce calcium flux, P61-related peptides compared: dose response; for EC50: doses 10-3000 nM, highest response not reached
T2 construct: expressed in transfected cells; host or cells: CHO-K1 (ATCC-CCL-61), transient co-transfection
T2 sequence (P04201 1-325): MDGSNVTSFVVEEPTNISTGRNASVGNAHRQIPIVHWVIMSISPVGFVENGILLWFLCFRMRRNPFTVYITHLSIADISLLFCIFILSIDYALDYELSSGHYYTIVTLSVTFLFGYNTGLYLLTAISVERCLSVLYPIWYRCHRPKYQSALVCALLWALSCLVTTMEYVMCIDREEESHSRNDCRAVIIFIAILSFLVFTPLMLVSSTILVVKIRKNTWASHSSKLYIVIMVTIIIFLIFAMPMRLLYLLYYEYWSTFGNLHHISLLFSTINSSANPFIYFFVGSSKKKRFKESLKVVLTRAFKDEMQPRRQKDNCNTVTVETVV
Protocol: as §1, §2, §3, §4, §5, §6
The ability of Peptides to change calcium flux was examined in CHO—K1 cells co-transfected with Mas receptor and Gα16.

[1] = tested on: aortic rings from Wistar rat; experiment: Vasorelaxant activity in phenylephrine pre-contracted aortic rings; conditions: for vasodilator effect in the presence of L-NAME: 100 μM L-NAME, NO synthase inhibitor; for vasodilator effect in the absence of functional endothelium: endothelium-denuded vessels; for Maximal values for the relaxant effect (Emax): mean±SEM
Source text: Male Wistar rats of the age of 13-14 weeks (body weight: 250 to 300 g) were used. The rats were exposed to light-dark cycle of 12 hs (day—06:00 to 18:00; night—18:00 to 06:00) controlled by timer. Rats were killed by decapitation and exsanguination and tissues were rapidly removed.
Rings (3-4 mm) from the descending thoracic aorta, free of adipose and connective tissue, were set up in gassed (95% O2 and 5% CO2) Krebs-Henseleit solution (mmol/L): NaCl 110.8, KCl 5.9, NaHCO3 25.0, MgSO4 1.07, CaCl2 2.49, NaH2PO4 2.33 and glucose 11.51, at 37° C., under a tension of 1.0 g, for 1 hour to equilibrate. The presence of functional endothelium was assessed by the ability of Acetylcholine (1 μM) to induce more than 70% relaxation of vessels pre-contracted with phenylephrine (0.3 μM) (Lemos et al., 2005). When necessary, the endothelium was removed by rubbing the intimal surface with a wooden stick. Mechanical activity, recorded isometrically by a force transducer (Panlab, model number TR1210, Spain), was fed to an amplifier-recorder (Powerlab 4/20, ADInstruments, Inc.) and to a personal computer equipped with an analogue-to-digital converter board (AD16JR; World Precision Instruments, Inc.), using CVMS data acquisition/recording software (World Precision Instruments, Inc.).
The vasorelaxant activity of peptides —P61_S (SEQ ID NO:10), P61 (SEQ ID NO.9)-dimer (P61_D), P33_V (SEQ ID NO:7) and P33 (SEQ ID NO:6)-dimer (P33_D) were measured in vessels (N=5-8) with or without functional endothelium pre-contracted to the same tension level (approximately 1.5 g of tension) induced by submaximal concentrations of phenylephrine (0.01 μM). For comparison, the effect of Ang-(1-7) was also tested (N=4)
P61_S (SEQ ID NO:10), P61 (SEQ ID NO9)-dimer (P61_D), P33_V (SEQ ID NO:7) or P33 (SEQ ID NO:6)-dimer (P33_D) were added in increasing cumulative concentrations (0.0001 to 1 μM) once the response to phenylephrine had stabilized (FIG. 28). In order to verify the participation of endothelium-derived products in the relaxant effect of peptides, experiments were performed in the presence of 100 μM N′-Nitro-L-Arginine Methyl Ester-[L-NAME]—a nonselective inhibitor of nitric oxide synthase. In experiments performed in the presence of L-NAME, vessels were pre-contracted with 0.03 μM of phenylephrine, to achieve the same tension level as the others. L-NAME was added to the bath 20 min prior to the addition of phenylephrine.
Results are presented as mean±SEM. Two-way analysis of variance (ANOVA) with Bonferroni multiple comparison post-test was used to compare concentration response curves obtained in aortic rings. The vasodilator effect of P61_S (SEQ ID NO:10), P61 (SEQ ID N09)-dimer (P61_D), P33_V (SEQ ID NO:7), P33 (SEQ ID NO:6)-dimer (P33_D) and Ang-(1-7) were expressed as percentage decrease in maximal contraction induced by phenylephrine. All statistical analyses were considered significant when p<0.05.

[2] = vessels with endothelium, 0.0001 to 1 μM cumulative

Substance: WSRAVLFPAAHRP (listed as Homo sapiens) [P33—10]
ability to induce calcium flux, P33-derived peptides (FPRL1): failed to induce calcium flux | ability to induce calcium flux, P33 monomer, dimer and derivatives compared (Mas receptor): induced calcium flux, albeit at a somewhat lower degree compared to P33_V

Substance: RWSRAVLFPAAHRP (listed as Homo sapiens) [P33—8]
ability to induce calcium flux, P33-derived peptides (FPRL1): failed to induce calcium flux | ability to induce calcium flux, P33 monomer, dimer and derivatives compared (Mas receptor): induced calcium flux, albeit at a somewhat lower degree compared to P33_V

Substance: Angiotensin 1-7 [Ang-(1-7), reference compound]
Ca response (Mas receptor; dose response experiment, data not shown): did not induce Ca response | vasodilator effect in the presence of L-NAME [1]: completely inhibited | vasodilator effect in the absence of functional endothelium [1]: abolished | Maximal values for the relaxant effect (Emax) [1, 2]: 15.64±1.91% | Maximal values for the relaxant effect (Emax) ([1]; vessels without endothelium): 2.82±3.11%

Substance: AVLFPAAHRP (listed as Homo sapiens) [P33—5]
ability to induce calcium flux, P33-derived peptides (FPRL1): failed to induce calcium flux | ability to induce calcium flux, P33 monomer, dimer and derivatives compared (Mas receptor): no activity

Substance: HRWSRAVLFPAAHRP (listed as Homo sapiens) [P33—9]
ability to induce calcium flux, P33-derived peptides (FPRL1): failed to induce calcium flux | ability to induce calcium flux, P33 monomer, dimer and derivatives compared (Mas receptor): induced calcium flux, albeit at a somewhat lower degree compared to P33_V

Substance: SMCHRWSRAVLFPAAHRP [P33_dimer] (also: dimer via cysteine; listed as Homo sapiens) [Peptide P33_dimer]
ability to induce calcium flux, P33-derived peptides (FPRL1): inactive | ability to induce calcium flux, P33 monomer, dimer and derivatives compared (Mas receptor): superior to the monomeric peptides | vasodilator effect in the presence of L-NAME [1]: completely inhibited | vasodilator effect in the absence of functional endothelium [1]: completely inhibited | Maximal values for the relaxant effect (Emax) [1, 2]: 17.78±3.43%

More lines, now with the values ahead:

calcium flux, P58 and derivatives (FPRL1): did not induce calcium flux
Substance: TIPMFVPESTSTLQ (listed as Homo sapiens) [P58—12]

ability to induce calcium flux, P61-related peptides compared (Mas receptor): as potent as P61_S
Substance: FAFLGYSIYLNRKRRGDPAF (listed as Homo sapiens) [P61—11S]

calcium flux, P58 and derivatives (FPRL1): did not induce calcium flux
Substance: TIPMFVPESTS (listed as Homo sapiens) [P58—6]

calcium flux, P58 and derivatives (FPRL1): elicited calcium flux
Substance: TIPMFVPESTSTLQKFTSWFM-amide (TIPMFVPESTSTLQKFTSWFM-NH2; listed as Homo sapiens) [P58—10]

calcium flux, P58 and derivatives (FPRL1): did not induce calcium flux
Substance: TIPMFVPESTSKLQ (listed as Homo sapiens) [P58—7]

ability to induce calcium flux, P33-derived peptides (FPRL1): similarly potent | ability to induce calcium flux, P33 monomer, dimer and derivatives compared (Mas receptor): equally potent
Substance: SMCHRWSRAVLFPAAHRP [Peptide P33_mono]

EC50 (Mas receptor): ≥ 500 nM
Substance: FLGYSIYLNRKRRGDPAFKRRLRD [Peptide P61_S]

EC50 (Mas receptor): ≥ 1000 nM
Substance: SMVHRWSRAVLFPAAHRP [Peptide P33_V, SMVHRWSRAVLFPAAHRP]

ability to induce calcium flux, P61-related peptides compared (Mas receptor): somewhat weaker
Substance: IYLNRKRRGDPAFKRRLRD (listed as Homo sapiens) [P61—4]
